Experimental data as given in patent publication US12129308B2, “MMP13 binding immunoglobulins” (Merck Patent GmbH, priority 2017, dated 2024).

Assays:
[1] = thermal shift assay (TSA); format: physicochemical; conditions: for Tm at pH 7: pH 7, monovalent Nanobodies; for TSA Tm (° C.)@ pH 7: C0101517A01 2nd round sequence optimization variants
Procedure: TSA was carried out with 5 μl of purified monovalent Nanobodies in essence according to Ericsson et al. (2006 Anals of Biochemistry, 357: 289-298).
The thermal stability of the wildtype anti-MMP13 Nanobodies was investigated in a thermal shift assay (TSA).

[2] = analytical size exclusion chromatography (aSEC); format: physicochemical; conditions: main peak
Procedure: Analytical SEC experiments were performed on an Ultimate 3000 machine (Dionex) in combination with a Biosep-SEC-3 (Agilent) column.
The tendency for multimerisation and aggregation of a selected panel of 5 representative anti-MMP13 Nanobodies was investigated by analytical size exclusion chromatography (aSEC).

SDS-Page = format: physicochemical
temperature stress = format: physicochemical; conditions: forced oxidation and temperature stress conditions
Procedure: Nanobody samples (1-2 mg/ml) were stored in PBS for four weeks at −20° C. (negative control) 25 and 40° C. After this incubation period, Nanobodies were digested with Trypsin or LysC. Peptides of stressed and control samples were then analyzed by means of RPC on a Series 1290 machine (Agilent Technologies) over an Acquity UPLC BEH300-C18 column (Agilent Technologies) at 60° C. coupled to a Q-TOF mass spectrometer (6530 Accurate Mass Q-TOF (Agilent))
(§1) In order to assess potential PTM, forced oxidation and temperature stress was applied on the lead panel.

MMP13 [3] = target: T1, MMP13 (Homo sapiens, UniProt P45452); experiment: fluorogenic peptide assay for sequence optimization variants and NNK libraries (species not stated); format: biochemical; conditions: C0101517A01 2nd round sequence optimization variants
Procedure: (§2) The setup of human, cynomolgus, rat, dog and bovine MMP13 fluorogenic peptide assays, as well as human MMP1 and MMP14 fluorogenic peptide assays is in brief as follows: activated MMP was incubated with fluorogenic peptide substrate Mca-PLGL-Dpa-AR-NH2 (R&D Systems #ES001) and a ⅕ dilution of periplasmic extract or a dilution series of purified Nanobody/positive control (total volume=20 μl in assay buffer 50 mM Tris pH 7.5, 100 mM NaCl, 10 mM CaCl2, 0.01% Tween20), for 2 h at 37° C.
However, the degree of isomerization and oxidation differed at the assessed conditions and were just below or above the applied threshold in each case. Eventually, amino acid residues 54-55, 100d-100e, M100j and 101-102 were identified as the residues responsible for the PTM. […] In order to attempt accommodating the different requirements, […] were constructed in which these residues were mutated, and subsequently screened in the fluorogenic peptide assay to evaluate possible potency losses as well as screened for biophysical properties (Tm).
Eventually, amino acid residues N100b and N101 were identified as residues sensitive to deamidation via temperature stress experiments. However, these residues are located in the CDR3 region, and potentially involved in target binding. Thus, knocking out the deamidation sites could have an impact on binding.

forced oxidation = format: physicochemical; conditions: forced oxidation and temperature stress conditions
Procedure: Nanobody samples (1 mg/ml) were subjected for four hours at RT and in the dark to 10 mM H2O2 in PBS, in parallel with control samples without H2O2, followed by buffer switch to PBS using Zeba desalting spin columns (0.5 ml) (Thermo Scientific). Stressed and control samples were then analyzed by means of RPC on a Series 1200 or 1290 machine (Agilent Technologies) over a Zorbax 300SB-C3 column (Agilent Technologies) at 70° C. Oxidation of Nanobodies was quantified by determination of % peak area of pre-peaks occurring as a result of oxidative stress, compared to the main protein peak.
as §1

MMP13 [4] = target: T1, MMP13; experiment: human MMP13 fluorogenic peptide assay; format: biochemical
Procedure: as §2
(§3) The potency/efficacy of the Nanobodies was tested in the fluorogenic peptide assay, set up for different MMP13 orthologues and in the human collagenolytic assay (both assays were also used during screening, see Example 6.3). In addition, a second collagen-based assay (fluorogenic collagen assay) using higher Collagen concentrations in comparison with the collagenolytic assay was established to simulate the high Collagen concentration conditions in cartilage in which the MMP13 inhibitor is expected to be active. In this assay the fluorescence of the intact FITC-labelled Collagen substrate is low due to the reciprocal quenching effect of the fluorophores. Upon cleavage, quenching is lost and fluorescence increases.

activated MMP13 [5] = target: T2, activated MMP13 (Homo sapiens, UniProt P45452); experiment: human collagenolytic assay (human Collagen II); format: biochemical; conditions: low Collagen concentration conditions
Procedure: The setup of this assay is in brief as follows: 250 ng/ml immunization grade human Collagen II (Chondrex #20052) was incubated with 5 nM activated MMP13 in 100 μl assay buffer (50 mM Tris-Cl pH 7.5, 100 mM NaCl, 10 mM CaCl2, 0.01% Tween-20). After 1.5 h incubation at 35° C., the reaction was neutralized with EDTA (10 μl of 30 mM stock). […] Remaining intact Collagen was detected via ELISA (reagents provided in Type II Collagen Detection kit (Chondrex #6009)).

activated MMP13 [6] = target: T2, activated MMP13; experiment: human fluorogenic collagen assay (DQ Collagen type I); format: biochemical; conditions: Table 6.5
Procedure: In brief, the setup of this assay is as follows: 100 μg/ml DQ™ Collagen, type I from Bovine skin (fluorescein conjugate; Molecular Probes #D-12060 lot 1149062) was incubated with 10 nM activated MMP13 and a dilution series of purified Nanobody/positive control, for 2 h at 37° C. in 40 μl assay buffer (50 mM Tris-Cl pH 7.5, 100 mM NaCl, 10 mM CaCl2, 0.01% Tween-20).
as §3
In FIG. 1 the dose response curves for inhibition of activated human MMP13 when using high concentrations of bovine Collagen I (fluorogenic Collagen assay) are depicted.

human full-length MMP13 = human full-length MMP13 (Homo sapiens, UniProt P45452); experiment: competition ELISA against biotinylated 40E09 (epitope binning); format: binding; conditions: 0.6 nM biotinylated 40E09
Procedure: FIG. 3: Competition ELISA with 0.6 nM biotinylated 40E09 against a panel of profile 1 and profile 2 Nanobodies on human full-length MMP13, coated via mouse anti-human MMP13 mAb (R&D Systems #MAB511). MMP13 was activated via incubation with APMA for 90 min at 37° C.
For epitope-binning a panel of monovalent Nanobodies derived from profile 1 and profile 2 were tested in a competition ELISA against the purified Nanobody 40E09 (profile 1).

rat MMP13 = rat MMP13 (Rattus norvegicus, UniProt P23097); experiment: adapted (more sensitive) rat fluorogenic peptide assay; format: biochemical; conditions: 0.15 nM MMP13 instead of 1.33 nM
Procedure: as §2
As best species cross-reactive binder (cf. Example 6.4.2) Nanobody 40E09 was selected as representative of profile 1 Nanobodies. For profile 2, three Nanobodies were selected: 516G08, 62C02 and 517A01. Profile 1 and profile 2 Nanobodies were combined in a bivalent format with a 35GS linker (see Table 6.5; Nb(A)-35GS-Nb(B)). The bivalent Nanobodies were cloned into pAX205, transformed into P. pastoris, expressed and purified according to standard procedures. […] Bivalent constructs were tested in this adapted fluorogenic peptide assay as well as in the human fluorogenic collagen assay.

| IC50 (MMP13 [3]) [nM] | Molecule | Tm at pH 7 [1] [°C] | relative area [2] [%] | TSA Tm (° C.)@ pH 7 [1] [°C] | SDS-Page results (SDS-Page) [band] | also measured |
| --- | --- | --- | --- | --- | --- | --- |
| 2.1 | C010100650: C0101517A01 sequence optimization variant, mutations N100bS, N101V (protein) VHH: DVQLVESGGGLVQPGGSLRLSCAASGRTFSSYAMGWFRQAPGKEREFVAAISWSGGSTYYADSVKGRFTISRDNSKNTVYLQMNSLRPEDTAVYYCTAALAVYGPSRYRYGPVGEYVYWGQGTLVTVSS | – | – | 81 | – | – |
| 2.1 | C010100647: C0101517A01 sequence optimization variant, mutations N100bQ, N101V (protein) VHH: DVQLVESGGGLVQPGGSLRLSCAASGRTFSSYAMGWFRQAPGKEREFVAAISWSGGSTYYADSVKGRFTISRDNSKNTVYLQMNSLRPEDTAVYYCTAALAVYGPQRYRYGPVGEYVYWGQGTLVTVSS | – | – | 81 | – | – |
| 2 | C010100649: C0101517A01 sequence optimization variant, mutations N100bS, N101Q (protein) VHH: DVQLVESGGGLVQPGGSLRLSCAASGRTFSSYAMGWFRQAPGKEREFVAAISWSGGSTYYADSVKGRFTISRDNSKNTVYLQMNSLRPEDTAVYYCTAALAVYGPSRYRYGPVGEYQYWGQGTLVTVSS | – | – | 79 | – | – |
| 2.8 | C010100648: C0101517A01 sequence optimization variant, mutations N100bQ, N101Q (protein) VHH: DVQLVESGGGLVQPGGSLRLSCAASGRTFSSYAMGWFRQAPGKEREFVAAISWSGGSTYYADSVKGRFTISRDNSKNTVYLQMNSLRPEDTAVYYCTAALAVYGPQRYRYGPVGEYQYWGQGTLVTVSS | – | – | 81 | – | – |

Further lines, the molecule ahead of its results:

| Molecule | IC50 (MMP13 [3]) [nM] | Tm at pH 7 [1] [°C] | relative area [2] [%] | TSA Tm (° C.)@ pH 7 [1] [°C] | SDS-Page results (SDS-Page) [band] | also measured |
| --- | --- | --- | --- | --- | --- | --- |
| 62C02: anti-MMP13 Nanobody, profile 2, SEQ ID NO: 11 (protein) VHH: EVQLVESGGALVRPGGSLRLSCAASGFAFSAAYMSWVRQAPGRGLEWVSSISDDGSKTYYADSVKGRFTISRDNAKNTVYLQMNNLKPDDTAVYYCNTGYGATTTRPGRYWGQGTQVTVSS | – | 76.4 | 100 | – | – | – |
| 517A01: anti-MMP13 Nanobody, profile 2, SEQ ID NO: 10; C010100087 is the parental of Table 6.7.1D (protein) VHH: DVQLVESGGGLVQPGGSLRLSCAASGRTFSSYAMGWFRQAPGKEREFVAAISWSGGSTYYADSVKGRFTISRDNSKNTVYLQMNSLRPEDTAVYYCTAALAVYGPNRYRYGPVGEYNYWGQGTLVTVSS | – | 77.8 | 100 | 78 | 1 | deamidation (temperature stress): prone to deamidation |
| 80A01: anti-MMP13 Nanobody, profile 2, SEQ ID NO: 12 (protein) VHH: EVQLVESGGGLVQPGGSLRLSCAASGFTLAYYSIGWFRQAPGKEREGVSCISSGIDGSTYYADSVKGRFTISRDNAKNTMYLQMNNLKPEDTGVYYCAADPSHYYSEYDCGYYGMDYWGKGTLVTVSS | – | 68.6 | 95 | – | – | Met-oxidation (forced oxidation): prone; Asp-isomerization (temperature stress): prone to Asp-isomerization |
| 40E09: anti-MMP13 Nanobody, profile 1, SEQ ID NO: 1 (protein) VHH: EVQLVESGGGSVQAGGSLRLSCAASGSTFSRYSMNWYRQAPGKQREFVAGISVGRITNYAVSVRGRFTISRDNAEGTGYLQMNSLKPEDTAVYYCNAGGLQGYWGLGTQVTVSS | – | 68.6 | 100 | – | 1 | inhibition in the fluorogenic peptide assay (screening) (MMP13 [4]): incomplete inhibition; efficacy / inhibition in the collagenolytic assay (activated MMP13 [5]): positive; IC50 human fluorogenic collagen assay (activated MMP13 [6]): partial; competition with 40E09 in competition ELISA (human full-length MMP13): compete with 40E09; IC50 (adapted) rat fluorogenic peptide assay (rat MMP13): neutral |
| 529C12: anti-MMP13 Nanobody, profile 2, SEQ ID NO: 9 (protein) VHH: DVQLVESGGGLVQPGGSLRLSCVASGSIFSINAMGWYRQAPGKQRELVAAISSGGSTYYADSVKGRFTISRDNSKNTVYLQMNSLRPEDTAVYYCNAAVDASRGLPYELYYYWGQGTLVTVSS | – | 82.7 | 100 | – | 1 | – |
| 516G08: anti-MMP13 Nanobody, profile 2, SEQ ID NO: 13 (protein) VHH: DVQLVESGGGLVQPGGSLRLSCAGSGSIFRINVMAWYRQAPGKQRELVAAITSGGTTNYADSVKGRFTISRDNSKNTVYLQMNSLRPEDTAVYYCYADIGWPYVLDYDFWGQGTLVTVSS | – | 65.2 | – | – | – | – |
